Biological target: Integrin alpha-v beta-3 (UniProt P06756+P05106)
Test: filter
Settings: BzdU replaces dT in the extended strand, HEPES, NaCl, KCl, MgCl2 buffer, 37 C

Sequence of Integrin alpha-v beta-3 (P06756 31-992, chain 1 of 2): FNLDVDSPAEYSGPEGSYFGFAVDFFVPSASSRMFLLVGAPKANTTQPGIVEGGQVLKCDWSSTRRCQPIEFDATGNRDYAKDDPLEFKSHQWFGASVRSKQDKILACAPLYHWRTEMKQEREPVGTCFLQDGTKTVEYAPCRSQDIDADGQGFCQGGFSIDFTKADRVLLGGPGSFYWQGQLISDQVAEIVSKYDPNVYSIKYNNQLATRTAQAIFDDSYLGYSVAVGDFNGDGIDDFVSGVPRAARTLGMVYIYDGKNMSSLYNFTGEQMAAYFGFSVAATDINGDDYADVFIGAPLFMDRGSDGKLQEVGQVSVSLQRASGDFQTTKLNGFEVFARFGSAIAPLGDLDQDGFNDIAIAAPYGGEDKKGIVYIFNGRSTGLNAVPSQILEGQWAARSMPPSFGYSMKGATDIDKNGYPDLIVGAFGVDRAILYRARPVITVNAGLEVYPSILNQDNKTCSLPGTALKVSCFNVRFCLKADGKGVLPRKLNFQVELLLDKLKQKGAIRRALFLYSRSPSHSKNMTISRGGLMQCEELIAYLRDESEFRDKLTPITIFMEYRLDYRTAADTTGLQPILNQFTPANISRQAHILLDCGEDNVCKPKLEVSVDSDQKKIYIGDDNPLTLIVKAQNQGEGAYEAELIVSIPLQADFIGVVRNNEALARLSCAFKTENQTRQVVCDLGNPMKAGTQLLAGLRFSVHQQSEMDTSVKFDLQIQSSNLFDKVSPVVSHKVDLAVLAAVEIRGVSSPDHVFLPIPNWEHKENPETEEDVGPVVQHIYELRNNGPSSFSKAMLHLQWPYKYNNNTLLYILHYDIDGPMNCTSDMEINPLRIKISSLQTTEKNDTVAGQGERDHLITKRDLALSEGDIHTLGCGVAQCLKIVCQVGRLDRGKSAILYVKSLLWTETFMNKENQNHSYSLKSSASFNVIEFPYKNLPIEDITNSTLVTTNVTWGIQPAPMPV
Sequence of Integrin alpha-v beta-3 (P05106 27-718, chain 2 of 2): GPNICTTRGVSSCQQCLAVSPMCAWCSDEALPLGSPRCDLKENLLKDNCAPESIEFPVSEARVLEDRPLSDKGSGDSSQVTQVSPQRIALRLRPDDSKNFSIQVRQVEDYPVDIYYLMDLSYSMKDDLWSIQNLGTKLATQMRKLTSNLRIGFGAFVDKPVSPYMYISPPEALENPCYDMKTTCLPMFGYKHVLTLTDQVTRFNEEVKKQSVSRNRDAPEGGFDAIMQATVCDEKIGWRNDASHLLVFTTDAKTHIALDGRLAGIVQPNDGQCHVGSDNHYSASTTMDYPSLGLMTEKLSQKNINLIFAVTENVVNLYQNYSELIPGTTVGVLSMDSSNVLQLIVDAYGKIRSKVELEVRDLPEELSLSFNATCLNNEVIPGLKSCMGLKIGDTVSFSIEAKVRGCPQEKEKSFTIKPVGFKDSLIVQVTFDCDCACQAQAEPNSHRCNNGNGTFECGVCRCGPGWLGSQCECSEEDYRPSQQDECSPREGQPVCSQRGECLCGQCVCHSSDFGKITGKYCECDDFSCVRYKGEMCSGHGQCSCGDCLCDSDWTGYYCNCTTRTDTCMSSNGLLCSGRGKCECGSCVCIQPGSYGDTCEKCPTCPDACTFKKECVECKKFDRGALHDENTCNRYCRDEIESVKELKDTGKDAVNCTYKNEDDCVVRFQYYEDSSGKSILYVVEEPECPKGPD

| Sequence | Kd (n = selected N40 region [n positions 19 = modified dU], Bmax 0.45) [µM] | Kd (n = random N40 [n positions 19 = modified dU], Bmax 3.23E-11, essentially no binding) [µM] |
| --- | --- | --- |
| TCAGCCGCCAGCCAGTTCTGACCAGAGCACCACAGAG [Round 8 SELEX pool] | 0.0433 | – |
| TCAGCCGCCAGCCAGTTCTGACCAGAGCACCACAGAG [Starting benzyl-dU random library] | – | 6.5 |
